Results: US20260062447A1 (UNIVERSITY OF SOUTHAMPTON, published 2026)
Each block holds one binder with its values, some of them ahead of it.

Key:
[1] = target: HIF-1 three-domain protein; assay: cell-based or functional assay
[2] = target: T1, HIF-1α PAS-B domain (UniProt Q16665 238-349, limits assumed, labelled for MST (label not named)); assay: MST (microscale thermophoresis), labelled HIF-1α PAS-B [part 3 of 14) B]
T1 construct: domain: PAS-B; 25 nM labelled protein in the assay; also called HIF-1α PAS-B protein; labelled HIF-1α PAS-B
Method: (§1) An aliquot of labelled HIF-1α PAS-B was thawed on ice and diluted to 50 nM with HIF MST assay buffer, before being centrifuged at 12,000 rpm for 15 minutes. […] Samples were loaded into NanoTemper® Monolith NT.115 premium treated capillaries and measurements were carried out using a Monolith NT.115 system at 25° C. using 50% MST power and 50% LED power. Data was analysed by NanoTemper® analysis software. Binding curves were fitted using GraphPad Prism 8 software.

[3] = target: T1, HIF-1α PAS-B domain; assay: MST (microscale thermophoresis), labelled HIF-1α PAS-B [part 4 of 5]
Method: as §1

[4] = target: T1, HIF-1α PAS-B domain; assay: MST (microscale thermophoresis), labelled HIF-1α PAS-B [part 3 of 5]
Method: as §1

T1 sequence (Q16665 238-349 limits assumed): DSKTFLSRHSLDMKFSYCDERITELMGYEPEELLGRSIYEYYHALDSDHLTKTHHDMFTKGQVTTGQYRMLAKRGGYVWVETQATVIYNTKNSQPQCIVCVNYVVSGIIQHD

- binding result [4]: no binding
B3: cyclic peptide Ser leu leu phe val tyr (peptide)
peptide: SLLFVY
modifications: cyclic peptide
notes: Comparative purposes only; also called S (serine) cysteine derivative

- binding result [4]: no binding
B4: cyclic peptide Thr leu leu phe val tyr (peptide)
peptide: TLLFVY
modifications: cyclic peptide
notes: Comparative purposes only; also called T (threonine) cysteine derivative

The remaining lines, values behind:

Binder: CLLFVY (cyclic peptide (cyclo-)) [cyclo-CLLFVY (Cys leu leu phe val tyr)]
- IC50 of inhibition of FAM-HRE DNA binding (fluorescence polarization) [1]: 76.5 µM

B1: Cyclo-CLLYVY (peptide)
cyclic peptide: CLLYVY
modifications: cyclic (cyclo-) peptide
notes: also called Y derivative at the phenylalanine position; Cys leu leu tyr val tyr
- Kd [2]: > 200 µM

B2: cyclic peptide Met leu leu phe val tyr (peptide)
peptide: MLLFVY
modifications: cyclic peptide
notes: Comparative purposes only; also called M (methionine) cysteine derivative
- binding result [3]: no binding
